Results: patent US20110262445A1 (CEPHALON AUSTRALIA, published 2011)
Like-named read-outs stand apart in the source and are kept apart here.

T1: human IL-12 (human, UniProt P29460 23-328; P29459 23-219)
T1 construct: Recombinant (Peprotech); FLAG-tagged IL-12 in the flow cytometry assays, biotinylated in the IL-12Rβ2 assay; also called hIL-12
T1 sequence 1: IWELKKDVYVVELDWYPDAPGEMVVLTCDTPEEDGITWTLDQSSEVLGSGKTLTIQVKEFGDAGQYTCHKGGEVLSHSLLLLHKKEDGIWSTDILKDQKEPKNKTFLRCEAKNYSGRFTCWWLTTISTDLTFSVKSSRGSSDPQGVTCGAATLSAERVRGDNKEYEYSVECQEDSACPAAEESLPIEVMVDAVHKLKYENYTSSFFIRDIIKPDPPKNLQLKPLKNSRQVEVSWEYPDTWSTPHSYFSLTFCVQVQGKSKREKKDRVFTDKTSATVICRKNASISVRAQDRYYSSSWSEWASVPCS
T1 sequence 2: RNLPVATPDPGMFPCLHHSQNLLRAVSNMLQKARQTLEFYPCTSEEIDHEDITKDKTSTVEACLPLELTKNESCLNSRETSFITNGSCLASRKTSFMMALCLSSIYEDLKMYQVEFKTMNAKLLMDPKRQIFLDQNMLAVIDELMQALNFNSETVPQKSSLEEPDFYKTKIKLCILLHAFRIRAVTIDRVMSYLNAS

T2: human IL-23 (human, UniProt P29460 23-328; Q9NPF7 20-189)
T2 construct: Recombinant (Ebioscience); HIS-tagged in flow cytometry, biotinylated in some assays; also called hIL-23; rhIL-23
T2 sequence 1: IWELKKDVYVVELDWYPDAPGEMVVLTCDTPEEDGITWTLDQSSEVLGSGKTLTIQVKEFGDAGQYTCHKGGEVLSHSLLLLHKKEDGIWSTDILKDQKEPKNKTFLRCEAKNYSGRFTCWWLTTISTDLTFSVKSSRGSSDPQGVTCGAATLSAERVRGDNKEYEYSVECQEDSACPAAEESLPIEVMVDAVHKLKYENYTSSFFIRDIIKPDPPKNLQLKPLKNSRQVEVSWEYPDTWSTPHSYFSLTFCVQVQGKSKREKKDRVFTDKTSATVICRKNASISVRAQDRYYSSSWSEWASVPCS
T2 sequence 2: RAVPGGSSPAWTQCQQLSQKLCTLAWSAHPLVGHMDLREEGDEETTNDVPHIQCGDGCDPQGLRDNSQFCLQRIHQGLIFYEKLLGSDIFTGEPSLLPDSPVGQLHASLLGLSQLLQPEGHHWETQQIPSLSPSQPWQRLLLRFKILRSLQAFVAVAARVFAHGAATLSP


Assays:
[1] = biological target: T1, human IL-12; assay: ELISA, coated IL-12
How it was run: (§1)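 Each value is an absorbance measuring binding. Plates (Maxisorp) carried cytokine coated at 1 μg/mL in carbonate buffer pH 9.6 overnight at 4° C, were blocked with 1% BSA in PBS for 1 hour at 25° C, and received antibody titrations for 1 hour at 25° C. Detection used goat anti-human IgG or anti-murine immunoglobulin HRP at 1:2000 for 1 hour, then TMB stopped with 1M HCl, with absorbance taken at 450 nm (reference 620 nm).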

[2] = biological target: T2, human IL-23; assay: ELISA, coated IL-23
How it was run: as §1

[3] = biological target: T2, human IL-23; assay: ELISA, coated IL-23; remark: listed apart in the source
How it was run: as §1

[4] = biological target: T1, human IL-12; assay: ELISA, coated IL-12; remark: listed apart in the source
How it was run: as §1

[5] = biological target: T2, human IL-23; assay: SPR, IgG
Method: (§2) CU-A6 was converted to Antibody 183, CP-A6 was converted to Antibody 184 and AW-F2 was converted to Antibody 207 by addition of a human heavy chain Fc region (SEQ ID NO: 8) and a constant kappa light chain region (SEQ ID NO: 9). IgG molecules were expressed by co-transfecting the heavy and light chain construct for each antibody into HEK 293E cultures. The expressed IgGs were purified by affinity chromatography and gel exclusion and the resulting monomeric molecules were tested for IL-12 and IL-23 binding by SPR (TABLE 6). All three IgG variants retained binding activity against both analytes with a visible improvement in kd compared to the parental wild-type IgG. Based on this, it is reasonable to expect that scFv variants described in TABLE 4 could be converted to the IgG format and retain improved binding characteristics against IL-12 and IL-23.
(§3) Using a SPR 3000, Protein A was immobilized onto FC1 and FC2 (or alternatively FC3 and FC4) of a CM5 research grade sensor chip using amine coupling, giving approximately […] RU. FC1 was used a blank throughout the experiments. The experiments were run in HBS-P buffer (SPR). At a flow rate of 20 μl/min, 20 μl of 5 μg/mL of antibody was passed over FC2. IL-12, IL-23 or IL-12p40 (Peprotech) were passed over the surface of FC1 and FC2 at concentrations ranging from 66 nM to 2 nM. Regeneration of the surface was performed using 10 mM Glycine, pH 1.0. The sensorgram data from FC2 was subtracted from FC1 and a buffer only control. The curves were fitted using a 1:1 Langmuir equation to generate the kd, ka and KD values. All curves were fitted with a χ² of less then 2.0 where possible.

[6] = biological target: T1, human IL-12; assay: SPR, IgG
Method: as §2, §3

| Binder | binding result [1] | binding result [2] | binding result [3] | binding result [4] | other results |
| --- | --- | --- | --- | --- | --- |
| Antibody 58 (antibody, human IgG1, kappa, V domains shown) VH: EVQLVQSGAEVKKPGATVKISCKASGYTFSDYYLHWVRQAPEKGLEWMGWIDPENGDTEYAPKFQGRVTITADTSTDTGYLELSSLRSEDTAVYYCAANKELRYFDVWGQGTLVTVSS VL: DIQMTQSPSSVSASVGDRVTITCRASQSISINLHWYQQKPGKAPKLLIKFASQSISGVPSRFSGSGSGTDFSLTINSLQPEDFATYYCQQSNSFPLTFGGGTKVEIKR | – | – | binds | binds | – |
| Antibody 207 (antibody, human IgG1, kappa, V domains shown, also called AW-F2 as IgG) VH: QVQLVQSGAEVKKPGASVKVSCKASGYTFTDYYLHWVRQAPGQGLEWMGWIDPENGDTESAPKFQGRVTMTTDTSTSTAYMELRSLRSDDTAVYYCNANKELRYFDVWGQGTMVTVSS VL: EIVMTQSPATLSVSPGERATLSCRASQSISINLHWYQQKPGQAPRLLIYFASQSISGIPARFSGSGSGTEFTLTISSLQSEDFAVYYCQQSNSFPLTFGGGTKVEIKR | – | – | – | – | Kd [5]: 0.176 nM; koff [5]: 6.5e-05 s⁻¹; kon [5]: 370000 M⁻¹ s⁻¹; Kd [6]: 0.167 nM; koff [6]: 0.00063 s⁻¹; kon [6]: 3.7e+06 M⁻¹ s⁻¹ |
| Antibody 184 (antibody, human IgG1, kappa, V domains shown, also called CP-A6 as IgG) VH: QVQLVQSGAEVKKPGASVKVSCKASGYTFTDYYLHWVRQAPGQGLEWMGWIDPENGDTEHAPKFQGRVTMTTDTSTSTAYMELRSLRSDDTAVYYCNANKELRYFDVWGQGTMVTVSS VL: EIVMTQSPATLSVSPGERATLSCRASQSISINLHWYQQKPGQAPRLLIYFASQSISGIPARFSGSGSGTEFTLTISSLQSEDFAVYYCQQSNSFPLTFGGGTKVEIKR | – | – | – | – | Kd [5]: 0.104 nM; koff [5]: 4.2e-05 s⁻¹; kon [5]: 410000 M⁻¹ s⁻¹; Kd [6]: 0.127 nM; koff [6]: 0.00054 s⁻¹; kon [6]: 4.2e+06 M⁻¹ s⁻¹ |
| Antibody 56 (antibody, human IgG1, kappa, V domains shown) VH: EVQLVQSGAEVKKPGATVKISCKASGYTFSDYYLHWVRQAPGKGLEWMGWIDPENGDTEYAPKFQGRVTITADTSTDTGYLELSSLRSEDTAVYYCAANKELRYFDVWGQGTLVTVSS VL: DIQMTQSPSSVSASVGDRVTITCRASQSISINLHWYQQKPGKAPKLLIKFASQSISGVPSRFSGSGSGTDFSLTINSLQPEDFATYYCQQSNSFPLTFGGGTKVEIKR | – | – | binds | binds | – |
| Antibody 81 (antibody, human IgG1, kappa, V domains shown) VH: QVQLVQSGAEVKKPGASVKVSCKVSGYTLTDYYLHWVRQAPGKGLEWMGWIDPENGDTEYAPKFQGRVTMTEDTSTDTAYMELSSLRSEDTAVYYCATNKELRYFDVWGQGTMVTVSS VL: EIVMTQSPATLSVSPGERATLSCRASQSISINLHWYQQKPGQAPRLLIYFASQSISGIPARFSGSGSGTEFTLTISSLQSEDFAVYYCQQSNSFPLTFGGGTKVEIKR | binds | binds | – | – | – |
| Antibody 79 (antibody, human IgG1, kappa, V domains shown) VH: EVQLVQSGAEVKKPGATVKISCKVSGYTFTDYYLHWVQQAPGKGLEWMGWIDPENGDTEYAPKFQGRVTITADTSTDTAYMELSSLRSEDTAVYYCNANKELRYFDVWGQGTMVTVSS VL: EIVMTQSPATLSVSPGERATLSCRASQSISINLHWYQQKPGQAPRLLIYFASQSISGIPARFSGSGSGTEFTLTISSLQSEDFAVYYCQQSNSFPLTFGGGTKVEIKR | binds | binds | – | – | – |
| Antibody 59 (antibody, human IgG1, kappa, V domains shown) VH: EVQLVQSGAEVKKPGATVKISCKASGYTFSDYYLHWVRQAPGKGLEWMGWIDPENGDTEYAPKFQGKVTITADTSTDTGYLELSSLRSEDTAVYYCAANKELRYFDVWGQGTLVTVSS VL: DIQMTQSPSSVSASVGDRVTITCRASQSISINLHWYQQKPGKAPKLLIKFASQSISGVPSRFSGSGSGTDFSLTINSLQPEDFATYYCQQSNSFPLTFGGGTKVEIKR | – | – | binds | binds | – |
| Antibody 77 (antibody, human IgG1, kappa, V domains shown) VH: QVQLVQSGAEVKKPGASVKVSCKASGYTFTDYYLHWVRQAPGQGLEWMGWIDPENGDTEYAPKFQGRVTMTTDTSTSTAYMELRSLRSDDTAVYYCNANKELRYFDVWGQGTMVTVSS VL: EIVLTQSPATLSLSPGERATLSCRASQSISINLHWYQQKPGQAPRLLIYFASQSISGIPARFSGSGSGTDFTLTISSLEPEDFAVYYCQQSNSFPLTFGGGTKVEIKR | binds | binds | – | – | – |
| Antibody 54 (antibody, human IgG1, kappa, V domains shown) VH: EVQLVQSGAEVKKPGATVKISCKASGYTFSDYYLHWVRQAPGKGLEWMGWIDPENGDTEYAPKFQGKVTITADTSTDTGYLELSSLRSEDTAVYYCAANKELRYFDVWGQGTLVTVSS VL: DIQMTQSPSSVSASVGDRVTITCRASQSISINLHWYQQKPGKAPKLLIYFASQSISGVPSRFSGSGSGTDFSLTINSLQPEDFATYYCQQSNSFPLTFGGGTKVEIKR | – | – | binds | binds | – |

More lines, main results first:

| binding result [1] | binding result [2] | binding result [3] | binding result [4] | Binder | other results |
| --- | --- | --- | --- | --- | --- |
| binds | binds | – | – | Antibody 76 (antibody, human IgG1, kappa, V domains shown) VH: EVQLVQSGAEVKKPGATVKISCKVSGYTFTDYYLHWVQQAPGKGLEWMGWIDPENGDTEYAPKFQGRVTITADTSTDTAYMELSSLRSEDTAVYYCNANKELRYFDVWGQGTMVTVSS VL: EIVLTQSPATLSLSPGERATLSCRASQSISINLHWYQQKPGQAPRLLIYFASQSISGIPARFSGSGSGTDFTLTISSLEPEDFAVYYCQQSNSFPLTFGGGTKVEIKR | – |
| binds | binds | – | – | Antibody 78 (antibody, human IgG1, kappa, V domains shown) VH: QVQLVQSGAEVKKPGASVKVSCKVSGYTLTDYYLHWVRQAPGKGLEWMGWIDPENGDTEYAPKFQGRVTMTEDTSTDTAYMELSSLRSEDTAVYYCATNKELRYFDVWGQGTMVTVSS VL: EIVLTQSPATLSLSPGERATLSCRASQSISINLHWYQQKPGQAPRLLIYFASQSISGIPARFSGSGSGTDFTLTISSLEPEDFAVYYCQQSNSFPLTFGGGTKVEIKR | – |
| – | – | binds | binds | Antibody 57 (antibody, human IgG1, kappa, V domains shown) VH: EVQLVQSGAEVKKPGATVKISCKASGYTFSDYYLHWVRQRPGKGLEWMGWIDPENGDTEYAPKFQGRVTITADTSTDTGYLELSSLRSEDTAVYYCAANKELRYFDVWGQGTLVTVSS VL: DIQMTQSPSSVSASVGDRVTITCRASQSISINLHWYQQKPGKAPKLLIKFASQSISGVPSRFSGSGSGTDFSLTINSLQPEDFATYYCQQSNSFPLTFGGGTKVEIKR | – |
| – | – | binds | binds | Antibody 55 (antibody, human IgG1, kappa, V domains shown) VH: EVQLVQSGAEVKKPGATVKISCKASGYTFSDYYLHWVRQRPEKGLEWMGWIDPENGDTEYAPKFQGKVTITADTSTDTGYLELSSLRSEDTAVYYCAANKELRYFDVWGQGTLVTVSS VL: DIQMTQSPSSVSASVGDRVTITCRASQSISINLHWYQQKPGKAPKLLIYFASQSISGVPSRFSGSGSGTDFSLTINSLQPEDFATYYCQQSNSFPLTFGGGTKVEIKR | – |
